Patent US20120315271A1 (Pfizer, published 2012)

Biological target: T1, human nerve growth factor (human, UniProt P01138 122-241, limits assumed)
T1 construct: also called human NGF; hNGF
Experiment: binding affinity measured with the Fab fragment; method not stated at this place (general BIAcore SPR protocol in paragraph 87); Fab, not IgG
Description: To obtain monofunctional Fab fragments, an antibody (for example, IgG) can be cleaved with papain or expressed recombinantly. […] The concentrations of the Fab proteins are determined by ELISA and/or SDS-PAGE electrophoresis using a Fab of known concentration (as determined by amino acid analysis) as a standard. […] Equilibrium dissociation constant (KD) values are calculated as koff/kₒₙ.

T1 sequence (P01138 122-241 limits assumed): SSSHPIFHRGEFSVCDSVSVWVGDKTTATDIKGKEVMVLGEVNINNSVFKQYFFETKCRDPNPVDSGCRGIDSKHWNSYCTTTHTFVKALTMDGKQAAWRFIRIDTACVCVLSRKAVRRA

B1: Fab fragment of humanized anti-NGF antibody E3 (Fab, V domains shown)
VH: QVQLQESGPGLVKPSETLSLTCTVSGFSLIGYDLNWIRQPPGKGLEWIGIIWGDGTTDYNSAVKSRVTISKDTSKNQFSLKLSSVTAADTAVYYCARGGYWYATSYYFDYWGQGTLVTVS
VL: DIQMTQSPSSLSASVGDRVTITCRASQSISNNLNWYQQKPGKAPKLLIYYTSRFHSGVPSRFSGSGSGTDFTFTISSLQPEDIATYYCQQEHTLPYTFGQGTKLEIK
notes: Full antibody E3 has a human IgG2a heavy chain constant region with A330P331 to S330S331 and a human kappa light chain constant region
In the case of B1, the Kd is reported as ~0.07 nM.
